Reference: patent US8124424B2, “Single molecule-format bioluminescent probe” (National Institute of Advanced Industrial Science and …, priority 2007, dated 2012)
Blank lines part the entries; values can stand above or below the molecule they belong to.

What was measured:
[1] = target: T1, AR LBD (Homo sapiens, UniProt P10275); assay: Inhibitory effects of androgen antagonists on DHT-induced luminescence, HeLa cells carrying pAR-NC and pTK-RLuc; type: cell-based; set-up: The cDNA-encoding AR LBD (672-910 AA) was modified by PCR; expressed in transfected cells; host or cells: HeLa; details: 5×10^−4 M antagonist 20 min, then 10^−5 M DHT 20 min, FIG. 8
T1 sequence (P10275 672-910): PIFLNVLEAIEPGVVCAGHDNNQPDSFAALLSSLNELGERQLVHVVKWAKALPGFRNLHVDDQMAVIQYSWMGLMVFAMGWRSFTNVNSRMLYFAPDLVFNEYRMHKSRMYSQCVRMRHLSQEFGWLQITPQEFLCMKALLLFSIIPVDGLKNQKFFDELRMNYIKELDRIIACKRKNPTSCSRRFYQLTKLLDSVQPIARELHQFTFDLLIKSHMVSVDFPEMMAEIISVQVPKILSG
Experimental: HeLa cells were transfected with pAR-NC and pTK-RLuc, and extensively incubated for 16 h. […] The luminescence intensities of each well were determined with a Dual-luciferase assay kit (Promega).

[2] = system: AR LBD; assay: Comparison of the DHT-induced luminescence of probes pAR-CN, pAR-NC, pAR-mut in HeLa cells; type: cell-based, human; details: 10^−5 M DHT stimulation, FIG. 3
Experimental: Cervical carcinoma-derived HeLa cells were sub-cultured in 12-well plates in Dulbecco's modified eagle's medium (DMEM; Sigma) supplemented with 10% steroid-free fetal bovine serum (FBS) and 1% penicillin-streptmycin (P/S) at 37° C. in a 5% CO2 incubator. HeLa cells in 12-well plates were transfected with pAR-NC, pAR-CN, or pAR-mut using a transfection reagent, TransIT-LT1 (Minis), which guarantees about 8% transfection efficiency to HeLa cells when incubated for 24 h. The cells were incubated for 12 h and then used for the following experiments.
HeLa cells in 12-well plates were transfected with the plasmids and incubated for 16 h. […] The recovered enzyme activities by ligands were estimated with a luminescence substrate kit, Bright Glo (Promega) or Dual-luciferase assay kit (Promega), according to the manufacturer's manuals. […] After a 3 min incubation at 37° C., the luminescence intensities from the cell lysates were recorded with a luminometer (Minilumat LB9506; Berthold). The protein amounts in the cell lysates were subsequently determined using a Bradford reagent for a normalization of the luminescence intensities. In specific, the firefly luminescence, which was normalized against the determined protein amount, was expressed as “RLU/protein (Bright Glo)”. The unit means the firefly luminescence intensity from the 1 μg of cell lysate.

[3] = target: T1, AR LBD; assay: Androgenic activity of ligands with pSimbe (CBLuc) probes in MCF-7 cells (dose-response, time-course, repetitive measurement, ligand panel); type: cell-based; details: two stimulations with 10^−5 M DHT for 20 minutes with medium replacement, FIG. 21
Experimental: As controls, vehicle #1 (0.1% DMSO) and vehicle #2 (0.02M phosphoric buffer saline (PBS)) were tested.

[4] = target: T1, AR LBD; assay: Ligand selection of pSimbe-LXA probe in four cell lines (MCF-7, CHO, HeLa, NIH 3T3); type: cell-based; set-up: The cDNA-encoding AR LBD (672-910 AA) was modified by PCR; expressed in transfected cells; host or cells: HeLa; details: 10^−5 M E2, T, DHT, 20 minutes, FIG. 16
[5] = target: T2, androgen receptor ligand binding domain (AR LBD; 672-910 AA) (human, UniProt P10275 672-910); assay: cell-based or functional assay
T2 sequence (looked up): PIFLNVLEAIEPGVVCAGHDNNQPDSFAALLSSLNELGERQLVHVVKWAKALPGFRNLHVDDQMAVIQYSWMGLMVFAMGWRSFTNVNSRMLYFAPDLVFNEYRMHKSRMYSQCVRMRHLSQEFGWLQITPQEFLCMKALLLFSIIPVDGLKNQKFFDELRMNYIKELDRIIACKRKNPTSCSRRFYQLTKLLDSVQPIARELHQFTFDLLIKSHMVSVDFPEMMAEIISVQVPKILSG

Molecule: CC12CC1(C)C(=O)N(c1cc(Cl)cc(Cl)c1)C2=O (centres unmarked) [procymidone]
percentage inhibition of the DHT-induced luminescence [1]: 68%

Molecule: pAR-mut: plasmid/probe with an alanine mutant (AQNLF) of the FQNLF motif (RGAAQNLFQSV)
luminescence intensities of probe-carrying cells compared among the three probes [2]: four times weaker luminescence intensities than the cells carrying pAR-NC

Molecule: pSimbe-LXA: CBLuc probe with AR LBD and reverse sequence of LXXLL motif from Xenopus TIF2 (SSDQLLRHLIKHK)
reversibility of luminescence on repeated DHT stimulation [3]: reversible recovery in the luminescence intensities | luminescence intensity versus the background in cell lines [4]: marked increase in the luminescence intensity versus the background

t1/2 of the rise in luminescence after 10^-6 M DHT, HeLa cells carrying pAR-NC [5]: 4.5 min
Molecule: RGAFQNLFQSV [AR N-terminal motif peptide (11 AA; 20RGAFQNLFQSV30), 'FQNLF' motif of human AR NTD]
